Values of other authors, collected in paper PMC13312411.
Like-named read-outs stand apart in the source and are kept apart here.

Columns and labels:
[1] = target: Hsc70 (Homo sapiens) (UniProt P11142)
[2] = target: Hsc70 (Homo sapiens) (UniProt P11142); remark: listed apart in the source

Chain of UniProt P11142 (P11142 2-646): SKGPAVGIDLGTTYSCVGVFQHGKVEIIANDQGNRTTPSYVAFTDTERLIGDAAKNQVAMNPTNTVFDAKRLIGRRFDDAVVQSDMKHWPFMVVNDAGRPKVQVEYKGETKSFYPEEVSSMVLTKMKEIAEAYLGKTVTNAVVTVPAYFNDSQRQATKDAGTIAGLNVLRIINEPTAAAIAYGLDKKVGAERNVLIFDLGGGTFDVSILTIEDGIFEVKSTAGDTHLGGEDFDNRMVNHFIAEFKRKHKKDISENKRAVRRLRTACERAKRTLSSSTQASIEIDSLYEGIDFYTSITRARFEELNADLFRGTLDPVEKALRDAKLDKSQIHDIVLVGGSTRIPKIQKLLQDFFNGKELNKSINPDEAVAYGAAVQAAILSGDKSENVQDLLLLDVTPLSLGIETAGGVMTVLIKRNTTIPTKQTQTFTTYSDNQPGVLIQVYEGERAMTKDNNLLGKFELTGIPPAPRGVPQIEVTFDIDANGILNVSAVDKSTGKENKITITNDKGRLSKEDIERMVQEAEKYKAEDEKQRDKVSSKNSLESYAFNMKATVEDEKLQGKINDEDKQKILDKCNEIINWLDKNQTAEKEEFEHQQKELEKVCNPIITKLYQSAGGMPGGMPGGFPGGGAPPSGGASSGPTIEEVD

DNAJB6 J-domain JD (from UniProt O75190)
Kd [1]: 3 µM

DNAJB6 JD-GF (open) JD-GF (from UniProt O75190)
Kd [2]: 400 µM
